# Positions count from the first letter of the chain named. “And” between values parts separate entries of the source, which are not always exact repeats. Equal values may be shown once.
# T1: Azami-Green fusion cynomolgus monkey CRTH2 (cynomolgus monkey, UniProt Q9Y5Y4 1-395 (human entry))
# T1 construct: Expressed on CHO/DG44 cells; not shown: Azami-Green tag from vector phmAG1-MNLinker (MBL)
# T1 chain: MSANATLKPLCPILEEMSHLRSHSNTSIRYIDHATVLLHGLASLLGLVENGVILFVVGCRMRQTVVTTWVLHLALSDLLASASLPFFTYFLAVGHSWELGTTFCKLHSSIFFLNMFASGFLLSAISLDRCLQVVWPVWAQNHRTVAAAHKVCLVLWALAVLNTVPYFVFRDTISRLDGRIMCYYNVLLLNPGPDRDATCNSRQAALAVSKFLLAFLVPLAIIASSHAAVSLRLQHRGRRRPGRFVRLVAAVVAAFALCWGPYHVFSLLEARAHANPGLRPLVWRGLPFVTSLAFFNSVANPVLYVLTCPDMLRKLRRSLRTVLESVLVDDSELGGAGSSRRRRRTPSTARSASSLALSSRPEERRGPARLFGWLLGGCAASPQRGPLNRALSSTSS
# T2: FLAG fusion human CRTH2 (human, UniProt Q9Y5Y4 1-395)
# T2 construct: Expressed on rat 3Y1-B cells; also called human CRTH2 with a C terminal to which a FLAG tag was added; not shown: FLAG tag at the C terminal
# T2 sequence: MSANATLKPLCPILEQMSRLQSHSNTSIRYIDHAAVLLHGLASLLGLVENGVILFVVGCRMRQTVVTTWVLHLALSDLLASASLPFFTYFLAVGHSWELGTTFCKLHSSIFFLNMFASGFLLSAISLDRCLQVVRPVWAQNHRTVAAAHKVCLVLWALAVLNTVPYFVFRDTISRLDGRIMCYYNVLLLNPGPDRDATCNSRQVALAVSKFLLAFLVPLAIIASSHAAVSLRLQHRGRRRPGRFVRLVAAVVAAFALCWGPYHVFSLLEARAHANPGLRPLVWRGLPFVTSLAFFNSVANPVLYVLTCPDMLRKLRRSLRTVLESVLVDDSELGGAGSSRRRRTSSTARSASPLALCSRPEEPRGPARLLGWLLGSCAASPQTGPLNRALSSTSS
# B1: humanized Lym2 antibody LV0HV1 (antibody, V domains shown)
# VH: EVQLVESGGGVVQPGRSLRLSCAASGFTFSNYYMAWVRQAPGKGLEWVATISYDGSSTYYRDSVKGRFTISRDNAKNSLYLQMNSLRAEDTATYYCARHRGYYYSGAGYFDYWGQGTMVTVSS
# VL: DIVMTQTPLSLPVTPGESASISCRSSQSLEYSDGYTYLEWYLQKPGQSPQVLIYGVSNRFSGVPDRFSGSGSGTDFTLKISRVEAEDVGVYYCFQATHDPLTFGQGTKLEIK
# notes: also called humanized anti-human CRTH2 antibody LV0HV1
# B2: humanized Lym2 antibody LV0HV0 (antibody, V domains shown)
# VH: B1 VH with T93V
# VL: B1 VL
# B3: rat/human chimeric Lym2 antibody (antibody, V domains shown)
# VH: B1 VH with V11L, L18M, R19K, G42K, N77S, S78T, N84D, A88S, T117V
# VL: DVVLTQTPVSLSVTLGDQASISCRSSQSLEYSDGYTYLEWYLQKPGQSPQVLIYGVSNRFSGVPDRFIGSGSGTDFTLKISRVEPEDLGVYYCFQATHDPLTFGSGTKLEIK
# notes: expressed in FUT8 knockout CHO cells; also called chLym2
# B4: humanized Lym2 antibody LV0HV2a (antibody, V domains shown)
# VH: B1 VH with T117V
# VL: B1 VL
# B5: humanized Lym2 antibody LV0HV2b (antibody, V domains shown)
# VH: B1 VH with L18M, T93V, T117V
# VL: B1 VL
# B6: humanized Lym2 antibody LV3bHV4 (antibody, V domains shown)
# VH: B1 VH with L18M, N77S, T117V
# VL: B1 VL with I2V, M4L, P15L
# B7: humanized Lym2 antibody LV0HV4 (antibody, V domains shown)
# VH: B1 VH with L18M, N77S, T117V
# VL: B1 VL
# B8: humanized Lym2 antibody LV1HV0 (antibody, V domains shown)
# VH: B1 VH with T93V
# VL: B1 VL with P15L
# B9: humanized Lym2 antibody LV1HV4 (antibody, V domains shown)
# VH: B1 VH with L18M, N77S, T117V
# VL: B1 VL with P15L
# B10: humanized Lym2 antibody LV4HV4 (antibody, V domains shown)
# VH: B1 VH with L18M, N77S, T117V
# VL: B1 VL with I2V, M4L, P15L, A85P
# B11: humanized Lym2 antibody LV0HV3 (antibody, V domains shown)
# VH: B1 VH with L18M, T117V
# VL: B1 VL
# B12: humanized Lym2 antibody LV3aHV4 (antibody, V domains shown)
# VH: B1 VH with L18M, N77S, T117V
# VL: B1 VL with I2V, M4L, A85P
# B13: humanized Lym2 antibody LV2cHV4 (antibody, V domains shown)
# VH: B1 VH with L18M, N77S, T117V
# VL: B1 VL with I2V, M4L
# B14: humanized Lym2 antibody LV2bHV4 (antibody, V domains shown)
# VH: B1 VH with L18M, N77S, T117V
# VL: B1 VL with P15L, A85P
# B15: humanized Lym2 antibody LV3aHV0 (antibody, V domains shown)
# VH: B1 VH with T93V
# VL: B1 VL with I2V, M4L, A85P
# B16: humanized Lym2 antibody LV2bHV0 (antibody, V domains shown)
# VH: B1 VH with T93V
# VL: B1 VL with P15L, A85P
# B17: humanized Lym2 antibody LV2cHV0 (antibody, V domains shown)
# VH: B1 VH with T93V
# VL: B1 VL with I2V, M4L
# B18: humanized Lym2 antibody LV2aHV4 (antibody, V domains shown)
# VH: B1 VH with L18M, N77S, T117V
# VL: B1 VL with M4L, P15L
# B19: humanized Lym2 antibody LV3bHV0 (antibody, V domains shown)
# VH: B1 VH with T93V
# VL: B1 VL with I2V, M4L, P15L
# B20: humanized Lym2 antibody LV2aHV0 (antibody, V domains shown)
# VH: B1 VH with T93V
# VL: B1 VL with M4L, P15L
# B21: humanized Lym2 antibody LV4HV0 (antibody, V domains shown)
# VH: B1 VH with T93V
# VL: B1 VL with I2V, M4L, P15L, A85P
# Biological target: T1, Azami-Green fusion cynomolgus monkey …
# Assay: flow cytometry on Azami-Green fusion cynomolgus monkey CRTH2-expressing CHO/DG44 cells, 2-30000 ng/mL
# Experimental: The Azami-Green fusion human CRTH2-expressing CHO/DG44 cells and the cynomolgus monkey CRTH2-expressing CHO/DG44 cells established in Example 24 were peeled using 0.02% EDTA solution (NACALAI TESQUE, Inc.), washed with PBS, and suspended with SM. Next, the cells were seeded in a 96-well plate such that each well had 2×10⁵ cells, and humanized Lym2 antibody LV0HV1 or the anti-DNP IgG1 antibody at each of final concentrations 30000, 7500, 1875, 469, 117, 29, 7, and 2 ng/mL were added thereto to cause a reaction at 4° C. for 40 minutes.
# After the cells were washed three times with SM, goat anti-Human IgG alexa 647 (Molecular Probes) diluted to a concentration of 10 μg/mL with SM was added thereto at 100 μL/well to perform a reaction at 4° C. for 40 minutes. The cells were washed with SM and resuspended with 100 μL of SM, and the fluorescent intensity was measured by flow cytometry (BD Biosciences, FACS CantoII).
row,Binder,binding result
1,B1,binds

# Biological target: T2, FLAG fusion human CRTH2
# Assay: flow cytometry on FLAG fusion human CRTH2-expressing 3Y1-B cells; logistic fit of Geomean; ± is the standard error
# Experimental: FLAG fusion human CRTH2-expressing 3Y1-B cells were peeled using a 0.25% trypsin-EDTA (NACALAI TESQUE, Inc.), washed with PBS, and suspended with SM. Next, the cells were seeded in a 96-well plate such that one well has 1×10⁵ cells. Further, chLym2 or each of the humanized Lym2 antibodies was added at each final concentrations of 50000, 12500, 3125, 781, 195, 49, 12, and 3 ng/mL to cause a reaction at 4° C. for 60 minutes.
# After the cells were washed with SM, Goat F(ab′)₂ Anti-Human IgG PE (γchain specific) (Southern Biotech Inc.) diluted 500 times with SM was added to cause a reaction at 4° C. for 60 minutes. The cells were washed with SM and resuspended with 50 μL of SM, and the fluorescent intensity was measured by flow cytometry (BD Biosciences, FACS CantoII).
# The data was analyzed by FLowJo 7.65 (Tomy Digital Biology Co., Ltd.), curve fitting of the Geomean value in each concentration was performed using a Logistic curve, and the 50% effective concentration (EC₅₀) value of the binding of chLym2 and each humanized Lym2 antibody and the standard error (SE) value thereof were calculated using R language (Ver. 3.02) which is a language for statistical analysis.
row,Binder,EC50
1,B2,0.55 µg/mL and 0.87 µg/mL
2,B3,0.5 µg/mL and 0.54 µg/mL
3,B4,0.65 µg/mL
4,B5,0.72 µg/mL
5,B6,0.53 µg/mL
6,B7,0.58 µg/mL and 0.67 µg/mL
7,B8,0.69 µg/mL
8,B9,0.58 µg/mL
9,B10,0.68 µg/mL
10,B11,0.69 µg/mL
11,B12,0.76 µg/mL
12,B13,0.54 µg/mL
13,B1,0.78 µg/mL
14,B14,0.59 µg/mL
15,B15,0.7 µg/mL
16,B16,0.67 µg/mL
17,B17,0.68 µg/mL
18,B18,0.51 µg/mL
19,B19,0.81 µg/mL
20,B20,0.66 µg/mL
21,B21,0.74 µg/mL
